Laboratory results: US20080227707A1, “BIOACTIVE PEPTIDES AND UNIQUE IRES ELEMENTS FROM MYELIN PROTEOLIPID PROTEIN PLP/DM20” (WAYNE STATE UNIVERSITY, priority 2002, published 2008)
Peptide text beside a SMILES is read from it. * marks the point of attachment. Cbz = O=C(OCc1ccccc1)*

Experiments:
[1] = test system: 293 cells; assay: Viability of PIRP expressing cells during MG132-induced cellular stress and apoptosis (Trypan Blue exclusion); assay type: cell-based, human; conditions: 293 control cells = 100%, not statistically significant, n=2
Method: FIGS. 6A-6C are bar graphs showing growth factor activity associated with the PIRP-M and PIRP-L proteins. […] Colony number was determined after calcium phosphate transfection of 293 cells and G418 selection. The control plasmid was pBSII vector comprising the […] but no mammalian selectable marker. The PLP/DM20-GFP Pro-constructs are missing the CMV promoter and the PLP/DM20-GFP M1L vectors contain the Met^1 mutation and are unable to translate the full-length proteolipid proteins (see description of FIGS. 2B-2C). Increase in colony number following PIRP expression was highly stastically significant (Student's t-test). […] Pools of 293 cells derived from the transfectants (see above) were grown in toxic (50 μM) and subtoxic (25 μM) concentrations of MG132 for 24 hrs. Viable cells were identified using Trypan Blue exclusion. […] Subconfluent 293 cultures were treated with CM for 48 hrs and 72 hrs. Total and viable cell numbers were determined using Trypan Blue exclusion and expressed as % of control (293 cells treated with 293 CM) cell number.
Although PIRP expression increased colony number, the biochemical mechanism of this response has yet to be defined. […] After 24 hrs, viable cells were counted (Trypan Blue exclusion) (FIG. 6B).

[2] = test system: human 293 cell line; assay: Colony formation assay after transfection and G418 selection; assay type: cell-based; conditions: 293 cells
Method: Transfections were performed in 100×20 mm dishes using the Profection® Mammalian Transfection System—a calcium phosphate transfection kit (Promega, Madison, Wis.). Cells grown to 50-70% confluence were fed 3 hrs prior to addition of the calcium phosphate/DNA mixture. A standard transfection assay contained 15 μg of plasmid DNA, while double transfections were done with 10 μg of each plasmid (20 μg total). The culture medium was removed 24 hrs post transfection and cells were processed for microscopic analysis or passed for G418 or Hygromycin B selection 48 hrs post transfection.
All constitutive expression cell lines were isolated by selection with the G418 antibiotic. 24 hrs after cell passage (see above), transfected 293 and NT2 cells were treated with 500 μg/mL G418 (Invitrogen Life Technologies) in DMEM. The selection medium was changed every second day for 2-2.5 weeks, during which the majority of cells detach and G418 resistant colonies emerge. Depending upon the number and density of colonies, surviving cells were grown for 3-5 days in G418-free medium prior to subcloning. Once colonies reached the appropriate size, each plate was briefly examined for fluorescence, and colonies with the lowest number of nonfluorescent, contaminating cells were marked for subcloning. […]

[3] = test system: 293, NT2, and 293-Tet-On cell lines; assay: Proteasome inhibition assay, MG132-induced cell death; assay type: cell-based, human; conditions: 50 μM MG132, 24 hrs
Method: Proteasome inhibition assays were carried out in stably transfected cell lines using MG132 (Z-Leu-Leu-Leucinal)—a potent, cell permeable inhibitor of the 26S proteasomal complex (Calbiochem, San Diego, Calif.). The MG132 concentration in all experiments (50 μM) was sufficient to insure 100% cell death of all 293, NT2, and 293-Tet-On cell lines in 24 hrs.
To confirm that 293 and NT2 cultures undergo apoptosis within 24 hrs post treatment with 50 μM MG132, cells were assayed for poly(ADP-ribose) polymerase (PARP) cleavage by caspase-3. The 293 and NT2cultures were grown in 100 mm dishes to ˜90% confluence and passed at equal density into a six well tray. At 70-80% confluence, wells were treated with 50 μM MG132 in DMEM and harvested for proteins at 0.5 hrs, 1 hr, 2 hrs, 4 hrs, 6 hrs, and 24 hrs after treatment. The PARP cleavage products were resolved on 4% SDS PAGE gels. The Western blots were incubated with an anti-PARP (BIOMOL Research Laboratories) primary antibody diluted 1:2000 in 3% BSA, and a HRP conjugated goat anti-mouse secondary antibody (Amersham) diluted 1:2500 in 3% BSA.

PIRP-L: ~7 kDa polypeptide translated from Met234 of PLP/DM20 mRNA via IRES; SEQ ID NO:8 (MTFHLFIAAFVGAAATLVSLLTFMIAATYNFAVLKLMGRGTKF; listed as Homo sapiens)
cellular viability (viable cell number), % of control cell lines ([1]; MG132-treated, 25 μM and 50 μM, 24 hrs): small increase in viability | cellular viability (viable cell number), % of control cell lines ([1]; untreated cells): not detected | colony count in PIRP-L transfectants compared to PIRP-M transfectants ([2]; p=0.02): increased colony count

CC(C)C[C@@H](C=O)NC(=O)[C@H](CC(C)C)NC(=O)[C@H](CC(C)C)NC(=O)OCc1ccccc1 [MG132, Z-Leu-Leu-Leucinal] (Cbz-Leu-Leu-Leu-aldehyde)
cell death [3]: 100%

B1: PIRP-M: ~10 kDa polypeptide translated from Met205 of PLP/DM20 mRNA via IRES; SEQ ID NO:6 (protein, listed as Homo sapiens)
chain: MYGVLPWNAFPGKVCGSNLLSICKTAEFQMTFHLFIAAFVGAAATLVSLLTFMIAATYNFAVLKLMGRGTKF
increase in colony number over controls ([2]; calcium phosphate transfection, G418 selection, colonies grown 2 weeks, vs pBSII PIRP-M control DNA lacking G418 resistance): 600-700 fold
